± gives the uncertainty stated by the source.

This series is described as follows: amyloid nucleation score (Sup35N fusion, yeast selection) (log enrichment); library NNK2; higher = more nucleation; inactive = no reads after selection. The method, boiled down:
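Output and input plasmid inserts were sequenced by Illumina after psi-negative yeast carrying Sup35N fused to peptides of 20 random codons had been induced 24 hours with 100 μM copper sulfate and grown 7 days at 30°C on medium lacking adenine and uracil. The nucleation score is the DiMSum log enrichment of output over input reads, centred on the mode score of non-aggregating sequences. Sequences with under 100 input reads were excluded.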
For the substance DQSGDQARNCKCFGSSL, the amyloid nucleation score came out at 0.298 ± 0.5.

DQYYNH came in with an amyloid nucleation score of 0.29 ± 0.77.

With DRESRFLYVYHSRY, the amyloid nucleation score entry is “inactive”.

On to DRHIVLSHSSGNLSRLLLAL, for which the amyloid nucleation score is 5.753 ± 0.055.

DRIAETSRYKRSENSLSLV came in with an amyloid nucleation score of 0.099 ± 0.53.

On to DRIQDQRIGYVVEFSIEKVS, for which the amyloid nucleation score is -0.742 ± 0.28.

For DRSSMTG, the amyloid nucleation score came to 0.698 ± 0.21.

Substance DRSSS returned an amyloid nucleation score of 0.447 ± 0.31.

In turn, DRTDVCWSSGHDHLDLCWMS showed an amyloid nucleation score of 0.273 ± 0.25.

Substance DRTKNFLCMMKRGFLSKIPW registered an amyloid nucleation score of 0.227 ± 0.56.

As for DRYYRISSFYFISMTKLWD, the amyloid nucleation score entry was “inactive”.

Regarding DSCCIFIL, the amyloid nucleation score was found to be 5.67 ± 0.058.

As for DSCFRVLHRTGFVFMSWLII, the amyloid nucleation score was 4.82 ± 0.082.

Turning to DSFIIASRL, the amyloid nucleation score is 1.69 ± 0.1.

As for DSFLLTPDLRDMYEL, the amyloid nucleation score was -0.681 ± 0.26.

Consider DSGVAHCANPCRPYREPVQS, for which the amyloid nucleation score turned out to be 1.09 ± 0.37.

As for DSSCFIIRLHSEFMLGSRSF, the amyloid nucleation score is -0.715 ± 0.79.

For DSSLNIGVLPIVTNGLTKCD, the amyloid nucleation score was -0.29 ± 0.28.

DSTPLGYSVLLSWTLVQRNL came in with an amyloid nucleation score of 1.38 ± 0.54.

For the substance DSVFVFGSHLFLQNSVRGRT, the amyloid nucleation score is -0.295 ± 0.24.

In turn, DSWFGRFYDEESSWCWAMVR gave an amyloid nucleation score of 0.039 ± 0.36.

On to DSWLGRMTRDKGNASFRSAS, for which the amyloid nucleation score was determined as 1.16 ± 0.46.

For the substance DSYMKRLWCRAARDRTESVW, the amyloid nucleation score amounted to 0.159 ± 0.46.

DTCWEGCLTKTYFW: the amyloid nucleation score is -1.29 ± 0.75.

As to DTKRVSINVRDNVTLRSFSW, the amyloid nucleation score is -0.392 ± 0.33.

In turn, DTPGHGNACSKIRP showed an amyloid nucleation score of -0.159 ± 0.55.

DTRKFLDKLYA registered an amyloid nucleation score of -0.13 ± 0.44.

Substance DTVYAF showed an amyloid nucleation score of -0.651 ± 1.1.

For the substance DTWEELFKNRDNPRRKCVGL, the amyloid nucleation score is 1.32 ± 0.41.

Regarding DVAGKL, the amyloid nucleation score is -0.151 ± 0.39.

DVCYCRKPTINALRWLMMYA gave an amyloid nucleation score of -0.27 ± 1.1.

Turning to DVFWKPVYARYFFHRVCMRE, the amyloid nucleation score entry is “inactive”.

Take DVLFDITNNGHSSLLAAV: the amyloid nucleation score came to 0.224 ± 0.8.

The substance DVRFVTEFKSYRSCCKQSMF returned an amyloid nucleation score of 2.42 ± 0.054.

Take DWHYIEKWT: the amyloid nucleation score was -0.12 ± 0.49.

Take DWNTWTSNFLALTGAWTGLG: the amyloid nucleation score was 0.062 ± 0.77.

DWRFRSGISISKYLVINLGD displayed an amyloid nucleation score of 5.79 ± 0.063.

For the substance DYIEKGFPGLPYHSCGSSTF, the amyloid nucleation score result was “inactive”.

DYMDAYGYINRGDPGLIVEV gave an amyloid nucleation score of -0.013 ± 0.53.

Take DYVNGGCLKFKNWRWKFSLS: the amyloid nucleation score is -0.349 ± 0.48.

Turning to DYVTVVGIILVLLLLNFNLG, the amyloid nucleation score result is “inactive”.

The substance EADELGLLVSIKCRAARRCW returned an amyloid nucleation score of 5.743 ± 0.052.

For EAKFGKLKGYKCTVTGECSC, the amyloid nucleation score was -0.391 ± 0.36.

EALMMVYGWEKTD displayed an amyloid nucleation score of 0.733 ± 0.24.

Take EALYALLSGGASNLKSHRLL: the amyloid nucleation score turned out to be 0.26 ± 0.65.

In turn, EAVNGWALLHIVSQ gave an amyloid nucleation score of 0.111 ± 0.33.

Turning to ECIYIMFKACGLRDRFSQVF, the amyloid nucleation score is 1.84 ± 0.13.

In the case of ECNQCWNMGMM, the amyloid nucleation score was -0.252 ± 0.76.

In turn, ECTYNKSWHQTWVTTRHGSS gave an amyloid nucleation score of 0.613 ± 0.23.

For the substance ECVRTLFYKLMTFAWLELRS, the amyloid nucleation score was -1.02 ± 0.76.

Consider EDFMRCRVWVSRGLVPSWGS, for which the amyloid nucleation score worked out at 0.747 ± 0.24.

As for EDFRGLIKL, the amyloid nucleation score result was “inactive”.

EDFYAYFLIRRCVACAIIFL yielded an amyloid nucleation score of 3.02 ± 0.15.

As to EEILHLVPINWGLYYYYTFC, the amyloid nucleation score entry is “inactive”.

As for EEYIRRQGVLTASLVYSKYI, the amyloid nucleation score result is “inactive”.

EFCSYDGCYFIASMAFVDTR yielded an amyloid nucleation score of -0.393 ± 1.1.

On to EFFCAHLRADLVLKKNRVVF, for which the amyloid nucleation score was -1.05 ± 0.78.

On to EFMGVSR, for which the amyloid nucleation score came to 1.51 ± 0.52.

Substance EGAVLRLALGVGTNLNQLSV came in with an amyloid nucleation score of 0.098 ± 0.37.

In turn, EGCRMLNIYLPDFLSFLDTG registered an amyloid nucleation score of -1.16 ± 0.78.

Consider EGEITFGTFPYSEFVFECST, for which the amyloid nucleation score result was “inactive”.

In turn, EGFKYWIDKGSSGTVCVKST yielded an amyloid nucleation score of 0.249 ± 0.65.

Take EGMLGIHRAGFLDGRGKLGL: the amyloid nucleation score result is “inactive”.

EGMTMTHGAGQLMLGGTASV came in with an amyloid nucleation score of 0.904 ± 0.44.

On to EGNNCW, for which the amyloid nucleation score came to 0.22 ± 0.23.

With EGRVHTSLLVVCVTHTRKYM, the amyloid nucleation score was -0.688 ± 0.42.

As to EGSCYIWGSMAITFNAHHDR, the amyloid nucleation score came to 5.68 ± 0.077.

EGSLPLGRSSCPGTLHDGMI: the amyloid nucleation score worked out at 0.922 ± 0.34.

In turn, EGTRIDLVKRRVNLWCI showed an amyloid nucleation score of -0.296 ± 0.76.

Substance EHTFLFA showed an amyloid nucleation score of -0.297 ± 1.1.

On to EICRY, for which the amyloid nucleation score result is “inactive”.

As to EIFIPCEWGIVIHQGHAVSQ, the amyloid nucleation score came to 4.46 ± 0.076.

The substance EILYYWPVNVICRKSVKDCI came in with an amyloid nucleation score of 0.434 ± 0.66.

As for EIYGFLVIICLLYGSLVSRW, the amyloid nucleation score was -0.2 ± 0.45.

On to EKMLF, for which the amyloid nucleation score is 0.528 ± 0.34.

EKQKWYYLELREAAQC displayed an amyloid nucleation score of 0.284 ± 0.2.

With EKVDCSVLAGNNWTWVNISL, the amyloid nucleation score is 6.7 ± 0.079.

In turn, ELCGLMAEPYRSHILGCGWT showed an amyloid nucleation score of 3.67 ± 0.066.

ELFFCFKRLHGLMGYNDLES showed an amyloid nucleation score of 4.13 ± 0.063.

ELLIHDEYDILMCN: the amyloid nucleation score was 0.136 ± 0.36.

Regarding ELMDNFLVSFVGKHRVTRSS, the amyloid nucleation score entry was “inactive”.

For ELPMLGFVCNYSKHQLFIFY, the amyloid nucleation score turned out to be 5.04 ± 0.1.

For ELVGYNVVGAIGSQ, the amyloid nucleation score is -0.022 ± 0.26.

As to EMSPSLMELFHACVVLVRFG, the amyloid nucleation score is -0.051 ± 0.37.

Consider EMYFALLVLFVLGGFSM, for which the amyloid nucleation score was -0.409 ± 0.76.

In turn, ENIYRRLLVLELLVWSCRGK showed an amyloid nucleation score of 0.569 ± 0.34.

ENLPGWLLVKMVQYY gave an amyloid nucleation score of 0.276 ± 0.54.

ENNFYY came in with an amyloid nucleation score of 0.953 ± 0.26.

Turning to EPTFWPRW, the amyloid nucleation score is 0.626 ± 0.35.

In the case of ERDSSALRMAYSICHGNSVV, the amyloid nucleation score is 0.232 ± 0.56.

As to EREVCMFRLYAKRGPAVDWL, the amyloid nucleation score turned out to be 2.19 ± 0.21.

In the case of ERIFGFI, the amyloid nucleation score was -1.45 ± 0.55.

For the substance ERIHSSCNYTFAFLLGFMSV, the amyloid nucleation score is 0.053 ± 0.54.

For the substance ERILSFFF, the amyloid nucleation score result was “inactive”.

The substance ERNYVT returned an amyloid nucleation score of -0.525 ± 1.1.

In turn, ERRRYLALLQMSMCATGLCY registered an amyloid nucleation score of -0.219 ± 0.43.

ESHCYSGDTWLCLCLSLVTR: the amyloid nucleation score is 8.457 ± 0.034.

On to ESRIYYVKQYSCLSTLTMVR, for which the amyloid nucleation score is -0.283 ± 0.35.

Take ESSLDCMRDANNKAAWVEVV: the amyloid nucleation score was found to be 1.05 ± 0.23.

Substance ESTAWAQVIPDNRLCGRNCR returned an amyloid nucleation score of -0.153 ± 1.1.

For the substance ESYTIDCRVFGLRGKGSTRA, the amyloid nucleation score was 0.695 ± 0.46.

For ETFVYYFNVSSLVT, the amyloid nucleation score is 0.11 ± 0.38.

For ETGCLRARAVATGVLGRREK, the amyloid nucleation score came to 0.171 ± 0.65.

The substance ETGSRGAN gave an amyloid nucleation score of 0.263 ± 0.25.

Consider ETRVITGDVSDRF, for which the amyloid nucleation score was 2.55 ± 0.091.

For the substance EVDSVNVSLCVS, the amyloid nucleation score was -0.796 ± 0.64.

Consider EVHGCYRAWDCMMVACVNAL, for which the amyloid nucleation score stood at 0.963 ± 0.53.

EVSRKTDTGQLLSDHVFFMN had an amyloid nucleation score of -2.23 ± 0.78.

Consider EWFNRSRYKCHRRHVLMAMV, for which the amyloid nucleation score came out at 0.343 ± 0.8.

EWHVWVCIWGCGIEAWMLSW registered an amyloid nucleation score of 1.84 ± 0.16.

Substance EWRKPGFVRGLRLNCVLRYF registered an amyloid nucleation score of -1.51 ± 0.78.

EYNRTLWSCYHWFVHVPPTN had an amyloid nucleation score of -0.171 ± 1.

Consider EYRGSVWLAGS, for which the amyloid nucleation score was -0.379 ± 0.29.

Consider EYSGLDVTDCQDT, for which the amyloid nucleation score amounted to 0.44 ± 0.36.

EYSYVVGMFREIVDTRTVFV: the amyloid nucleation score is 0.107 ± 0.2.

EYYFSTELGGVFTLY showed an amyloid nucleation score of 1.18 ± 0.12.

FAPSSIDFYRGSKNGLFTAQ registered an amyloid nucleation score of -0.302 ± 0.4.

FARGNINLMVVFVFFDS came in with an amyloid nucleation score of 5.766 ± 0.049.

On to FARLGLSSQHRRLIVC, for which the amyloid nucleation score is -1.31 ± 0.54.

FAYSLTPFRWSRDLLMSPLG: the amyloid nucleation score turned out to be 0.104 ± 0.28.

FCALWVQFRYRE showed an amyloid nucleation score of 3.89 ± 0.1.

For the substance FCCTLAIFSL, the amyloid nucleation score was 7.594 ± 0.024.

For FCILYSVFNGRLRYAFGDAS, the amyloid nucleation score is -2.06 ± 0.62.

The substance FCIVQIMDVTVLGSTSATID came in with an amyloid nucleation score of 5.592 ± 0.054.

Consider FCLFFLASQIIVMGVTTYTG, for which the amyloid nucleation score is -0.313 ± 0.76.

Substance FCPMVLAFTSRGIATKNCGV showed an amyloid nucleation score of 0.566 ± 0.74.

The substance FCRDLVSGLIMTMPLCTDEM came in with an amyloid nucleation score of 0.079 ± 0.5.

In the case of FCSCWNSEFNENSFVWRNIL, the amyloid nucleation score was found to be 5.35 ± 0.058.

Take FCVCARWCIVVSGLVCDLRY: the amyloid nucleation score was -0.323 ± 0.63.

For FCYQMSEVWIWCKFIFSI, the amyloid nucleation score is -1 ± 1.1.

Substance FDAMSSFLQYLLTHKMWVGD displayed an amyloid nucleation score of 0.799 ± 0.43.

Consider FDHHRGGNTLMQGDLLVMDF, for which the amyloid nucleation score turned out to be 0.925 ± 0.67.

For FDLVGDGYCNYALEYTRLNM, the amyloid nucleation score was -1.15 ± 1.1.

For FDLWIPGAVVEVIDMGSAAR, the amyloid nucleation score came out at 0.651 ± 0.44.

Substance FDNQFTLVVRGIVGTVYWCV registered an amyloid nucleation score of 7.233 ± 0.065.

With FDPSMSFNWCICSFELDWAG, the amyloid nucleation score stood at 5.321 ± 0.032.

Substance FDQVWRCVASLRPIVLSCSS had an amyloid nucleation score of 0.322 ± 0.54.

As to FDSPYPMPMSHSVNSSLIIW, the amyloid nucleation score is -0.155 ± 0.3.

The values are drawn from the supplement of paper PMC12042874.
